Columns and labels:
[1] = target: T1, bovine myelin basic protein (biotinylated MBP, Amersham Biosciences), P02687
T1 chain: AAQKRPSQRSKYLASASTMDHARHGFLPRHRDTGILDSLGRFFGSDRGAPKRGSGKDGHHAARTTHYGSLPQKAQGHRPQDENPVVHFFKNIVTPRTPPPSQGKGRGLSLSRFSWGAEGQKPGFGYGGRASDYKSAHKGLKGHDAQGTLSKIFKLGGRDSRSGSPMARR

[2] = target: T2, peptide 3: Biotin-KKRFSFKKSFKLSGFSFK-COOH
T2 chain: KKRFSFKKSFKLSGFSFK

B1: GST-14171 fusion protein (glutathione S-transferase fused to the N-terminus of a partial 14171 molecule, amino acid residues 1-350 of SEQ ID NO:2) (protein)
chain: MEGDGGTPWALALLRTFDAGEFTGWEKVGSGGFGQVYKVRHVHWKTWLAIKCSPSLHVDDRERMELLEEAKKMEMAKFRYILPVYGICREPVGLVMEYMETGSLEKLLASEPLPWDLRFRIIHETAVGMNFLHCMAPPLLHLDLKPANILLDAHYHVKISDFGLAKCNGLSHSHDLSMDGLFGTIAYLPPERIREKSRLFDTKHDVYSFAIVIWGVLTQKKPFADEKNILHIMVKVVKGHRPELPPVCRARPRACSHLIRLMQRCWQGDPRVRPTFQEITSETEDLCEKPDDEVKETAHDLDVKSPPEPRSEVVPARLKRASAPTFDNDYSLSELLSQLDSGVSQAVEGP
counts per minute at the two hour timepoint, 10 nM enzyme, 0.5 uM substrate [1]: about 21,000 cpm
phosphorylation of biotinylated MBP by soluble GST-14171 fusion protein [1]: phosphorylated MBP
signal-to-noise ratio at the two hour timepoint, 10 nM enzyme [1]: a signal-to-noise ratio of 13
substrate phosphorylation, [gamma-33P]ATP, streptavidin SPA beads [1]: strong phosphorylation of bovine myelin basic protein
counts per minute at the two hour timepoint, 10 nM enzyme, 0.5 uM substrate [2]: about 11,000 cpm
signal-to-noise ratio at the two hour timepoint, 10 nM enzyme [2]: a signal-to-noise ratio of 9
substrate phosphorylation, [gamma-33P]ATP, streptavidin SPA beads [2]: weak phosphorylation of the following peptide, named peptide 3
